In a protein production outcome set (Wang et al. 2014):

Test: label from the status in PepcDB records

Sequence	protein production
MSLYKQLLIAICLFVLIIFSGSFFVSLENSREQYNNQLHSHAQDAATALGLSLTPNIDDPAMVELMVSSIFDSGYFSSIRVRDLKTGNVTLERTASPDIPDVPLWFVQLVDLQPGAGEAIVMRGWEQAAKVEVVSHPMFAVTRLWRSSTATFLWLLGCGTLGVLIGALFLRRQLRPLDYIVDQSLAITRREFLSQPDLPNTPEFRRVAQAMNLMVSKLKTLFEEEAERSERLRQEAYQDPQTGLNNRRAFDMQFNDKLADEETAPGFLIMIRVQDLAGMNQRLGGQRTDALLASVGHILRKTQKQHTNTESLLARIRGGEFALFCPGLVDKEVYALIGELTRNIETLHLTGETDVSPVAQFGMVPFRPGDTAQSLFIQGDQALTRAESDTDTTAPYEIPLAGAEQVETDRHMWFNLLDPILEQERLQLFLQPVVACDDPSQVLHHKVLARIQDEQGNSIAAGRFLPWIQRFGWDTRLDQTMLREVLDYLRQHDGNLALSLSGTTVLNLHLLADLLAPLKHQPEVARRLILELDENQLPDSAQLETLIKLLNEHGCALGLQHFGGRFNMIGNLSQWGLAYLKVDGSYIRNIDQEGDKQMFIEALYRATNSIALPLIAERVETAGELKVLQEMGLQGAMGRLLGEPMPAVRA	failed
MSLRDFGLLVLICLIWAGSNIISKLVVAHWGVPPLYYAAVRFALVAALTLPWLLPAPRPTWRMVLVGLLMGGGNFALLFMGFQTASPSAASVVIQVGVPFTTLLSVLILGEKIRWRRGLGIALTLLGAVVVMWSPKGIELSAGLWLIVAAAFTGSLGAVMMKQIEGVKPLQFQAWVGFSSVWPLAAMSAFMEPGQVAAGFAAGWPFVAAVVFSAVVVSILAHTAYYGLIQRYEANLIAPLTLMTPLFTIGMGVVVTNDHFDLRMGIGAALALLGVLIIALRRNQVMPLLTSLRSRLQ	failed
MTIRISGKSISIGEALRSRVSERTEEVLRKYFDGNYSGHFTLSKDGFGFRTDCALHLDSGITLEAESNAADAYVSADQALVQIEKRLRRYKSRLKDRSSRKAHAEANALAELSTPVDAASYVIEAPGDEEHHEDAYNPVIIAEATTAMKRLSVSEAVVELDLTGAPVVVFLHGSSGRVNIIYRRADGNIGWIDPPVLNGAN	failed
MKPRIYVKVKPERLGAVIGPRGEVKAEIMRRTGTVITVDTENSMVIVEPEAEGIPPVNLMKAAEVVKAISLGFPPEKAFRLLEEDQILVVVDLKQVVGDSQNHLKRIKGRIIGEGGRARRTIEEMTDTYINVGEYEVAIIGDYERAMAAKQAIEMLAEGRMHSTVYRHLERIMREIKRRERLKMWAREEL	not failed
MELGLYTFADVNPNPADGRGPEGARRLRELLEEIELADQVGLDVFGLGEHHRPDYVVSSPSTVLAAAAVKTKNIRLTSAVSVLSSDDPVRVFQQFSTVDLLSNGRAEIMAGRGSFIESYPLFGYDLEDYDVLFAEKLDLLLALREQEVVTWSGTKHPAINGRGVYPRPLQERLPVWIAVGGTPQSVARAGAMGLPVALAIIGGEYRRFAPLFDLYHEAARRAGQEKTKLRTSINVHGFIADTTDKAADQFYGPQAEVMNRIGRERGWGPTNRAHFDAARGPEGNLFLGEPELVAEKIIKAHGVFKNDRFLLQMAIGLMPHDQIMRGIELYGTKVAPLVRKELTGSADPVKATA	not failed
MASFDGQGFMMVDNSWVQTKAIDVESTTDISPYLSKILEDSVWNGNRSIVFDVYWDVKSVSTKSEWRLCSVKFSTKNFCLFLRLPNPFCDNLKDLYRFFASKFVTFVGVQIQEDLALLKENHGIVIRSSLEIGKLAAKARGTPIVEFLGTRELAHKILWYDMSRLDSIQSKWDEASSNDRLEAAAIEGWLIFNVYDQLQQ	failed
MDNLSFHDGNIFNLLHTRSQDPSHEVDQRMQFHSSLVRRLSQEQELEGHQGCVNALAWNSNGSLLISGSDDLRINIWNYSSRKLLHSIDTGHTANIFCTKFVPETSDELVVSGAGDAEVRLFNTSRLSGRAEDDNAIIPSALYQCHTRRVKKLAVEPGNPNVVWSASEDGTLRQHDFRESTSCPPAGTAHQECRSVLLDLRSGAKRALADPPKQTLSLKSCDISATRPHLLLVGGSDAFARLYDRRMLPPLASSRKRMPPPPCVNYFCPMHLSERGRTNLHLTHVTFSPNGEEVLLSYSGEHVYLMNVNNGICSTGIMQYTPGDVDNLFSFSNNLHDVESPPQVSTTPQNGFHRSSNAATVKKCTELVEIAKWSLEEGTDVFYAIEAANEVLDAHSNDIESALRHECLCTRAALLLKRKWKNDAHMAVRDCHNARRIDASSFKAHYYMSEALQQLGKCKEALDFATAAQHMNPSDADIVAKVESIKRDLQAAGAEKNEETGAGTTRVLSLSDILYRSEANSDSSHDMSRSEREDSDYDEELELDIQTSLSDDEGRDTDSNSMRGSLNLRIHRVGDDKPMENTVDNASSGTASSSQNDRTSYQPEGAIDMKRRYVGHCNVGTDIKQASFLGQRGEYIASGSDDGRWFIWEKQTGRLMKVLVGDESVLNCIQCHPFDSVVATSGIDNTIKIWSPTASVPSIVAGGSAGPATANVVEVMESNQQKLSRNRENPLSVELMQRFRMQEFAEGNFHPFECTQS	failed
MNVMRHSWLAVAGIAGLLAFPPVDACTLWGAAGTASMEGSLLAKNRDWKPDHAQSLRLLHPEHGYAYLGLYADNGSEPGIKAGVNQKGLAVVAAEASSLPRALRADSARHGVLTRLLRDYGSLDEVASAADKLFAQARPVFLLLADAGGLMQVEIGQHGRYRLIRQQSGTLAHTNHYADTSLLDGAQTIGPSSQARLERIRFLLDQHPAHTLSEFERLSRDRHDGPDNSLWRSGREHTLAGWRIALPAGAPPRLQLTLANPGRAERDGDYALDSAFWAQPARTLLPLEHHHHHH	not failed
MILSLCCLGSWPAILTLLERRGRLPQHTFLDFATANLLAAIVIAFSLGEIGKSTFLKPDFTTQLPQDNWPSVLLAVAGGVLLSIGNLATQYAFAFVGLSVTEVITASITVVIGTTLNYFLDNKINKAEILFPGVGCFLIAVFLGAAVHASNAADVKEKLKSLPSEDLYSSIENGEDKPEIEKTDVESQEKLAEKAKAGTAGFYVELENKRAIKVFGKSIMIGLFITLFAGISLSLFSPAFNLATNDQWSTLPKGVPKLVVYTAFFYFSIAGFLISLILNLIFLYRPMVGLARSSLKKYIYDSKGRGWAVFAGFLCGFGNGLQFMGGQAAGYAAADSVQALPLVSTFWGIVLFGEYRKSSKRTYALLVSMLAMFVAAVAILMASSGHRK	failed
MANKENTSDEGLRVSYDVKTYHEQKYIDYTLRLREILKTLPSFAKDYFRAIEPTTSANTRISYAYDIRVFFRFLMENNPVYKNYTIDQFTLADIENLEPVDIEEYQEYLKVYKNDEKQVTNTEKGLARKMSALRSFYGYYFKRQAISKNPTLLVDMPKLHEKAIIRLDADEVVRLLDYVDHGGDHLTGQKKAYFEKTRNRDLAILTLLLGTGIRVSECVGLDINDVDFENNGIKVMRKGGNEMIVYFGEEVENALKTYMYTTRRTTLPLPGHENALFLSTQRKRMGVQAIENMVKKYAREVTPNKKITPHKLRSTYGTSLYKETGDIYLVADVLGHKDVNTTKKHYAAIDEDRRRQAANIVKLREV	failed
AIDHRIQYLAYREIKAAVETNKAKAGSVVVLDAHTGELLALANYPSFNPNNRSGVTPEMMRNRGVIDLFEPGSTMKPLSISLALEHGKANLNTVLDTHSYMIGPATIRDVSPQASLGILGIIQKSSNVGTSKLALLNSPEEFWKHYDALGFGRAPETGFPGEASGRLRDWHKWRPIEQATMSFGYGVSVSLIQMARAYTIFANDGVMLPVALYKTANPMPGKRVLSEKTAHEMRDLLIANSQPGGGAVGGRIIGYSIGGKSGTARKLEGRAYVANKHRALFMGFAPGHSPKVIVAVMIDEPSAGKYYGGAVSAPVFSQVAGGALRVLNIAPD	failed
MKKLFTNTIFIQSNLERLSTILKSPQNLSKWVPDINSVSPKDDYFLISRSSSALNNFEKISVTSQDNSIIYTSTGGRLEYELHFDLTNKDDRTLVEQTLLVDETLTKLPLTLLAPIAKHAFHENLSSLERLIAISLEHHHHHH	failed
MSDLSQLIVAPILLPLITAAIMLLLGEKHRHIKARLNLLSTFSGLAIAACLLLWVRTQGQAASIGVYLPGNWPAPFGIVLVVDHLSALLLTLTGVIGFSALLFARARWDGAGASFHALFQIQLMGLYGAFLTADLFNLFVFFEVLLAASYGLLLHGSGRARVRAGLHYIAINLFASSLFLIGAAMLYGVTGTLNMADLALKIPLVPEADRGLLHAGAAILAMAFLVKAGIWPLNFWLVPAYASASAPVAALFAIMTKVGLYAVLRLWTLLFSGQAGASAHFGGEWLVYGGLVTLAVAAVSILAAQRLERMAALSILVSAGTLLGAVGFAQAALTGAALFYLVNSTLALCALFLLAELVERSRSANEAPLDEEEDAMPPPLESLHPPKGINLDDEQQVVIGQIIPWTMAFLGLSFIACALLIIGMPPLSGFVGKLNLISALFNPLGLGVPAEQPLSAAGWGLVALLILSGLASLIAFGRVGIQRFWKPEERPSPVLRRYECLPIVILLGLCLILSFKAEPLLRYTQDTAASLQAPDAYIKAVMAAQPIPGPTSRDVQVQP	failed
MANSASPEQNQNHCSAINNSIPLMQGNLPTLTLSGKIRVTVTFFLFLLSATFNASFLLKLQKWTQKKEKGKKLSRMKLLLKHLTLANLLETLIVMPLDGMWNITVQWYAGELLCKVLSYLKLFSMYAPAFMMVVISLDRSLAITRPLALKSNSKVGQSMVGLAWILSSVFAGPQLYIFRMIHLADSSGQTKVFSQCVTHCSFSQWWHQAFYNFFTFSCLFIIPLFIMLICNAKIIFTLTRVLHQDPHELQLNQSKNNIPRARLKTLKMTVAFATSFTVCWTPYYVLGIWYWFDPEMLNRLSDPVNHFFFLFAFLNPCFDPLIYGYFSL	not failed
LSANYAENLQAQQRSAQRLEHQAWLRTGQTQLAQQVLGQLTLPMLGENILRFFASYLGSVVGAVYVRDEHGRLVRVACYGLSTEEQAREQIESDHHGLLAQAVREGRLLRLEELPEDFYRLSSGLGSGLPRSALLMPATEDGQINGVIELGFLRPLQERDEELLERVGGNLGMSIESA	failed
MTTNPYTGEREAGKSAIGAGLGSLVGAGIGALSSSKKDRGKGALIGAAAGAALGGGVGYYMDVQEANVRDKMRGTGVSVTRSGDNIILNMPNNVTFDSSSATLKPAGANTLTGVAMVLKEYPKTAVNVIGYTDSTGGHDLNMRLSQQRADSVASALITQGVDASRIRTQGLGPANPIASNSTAEGKAQNRRVEITLSPLLEHHHHHH	not failed
MQWQESLPWTPEARQKLKNIPYFARVQARQRIEQLARQADLDEVTVDLVEQARLEFGQ	failed
MKKEKKDYYEILGVPRDATQEEIKRAYKRLVKEWHPDRHPENRKEAEQRFKEIQEAYEVLSDPQKRAMYDRFGYVGEQPTYQETESGGFFDDIFRDFENIFNRDIFDVFFGERPHQEERREYARRGEDIRYEIEVTLSDLINGAEIPVEYERYETCPRCGGTGVEPNAGYMDCPSCGGTGRIREERRSFFGYFVSERTCERCGGTGKIPREYCHECGGSGRVLRKVRRTVKIPPNVEDGTHLRITGGGNAGYYGGPYGDLIIIVRVKPDPRFKKSGSDLVYDVTIDYLQAILGTTVEVPLPEGGTTMLKIPPGTQPETVFRLKGKGLPNRYGRRGDLIVNVHVEIPKSLSREERKVLEELAKKRGVTIG	failed
MGGKWSTPSFDEAARLVLGRGFHHVSLCAAGYFSDGNETIHRESVLSAIDPSVRVETIPCLNDSPHLIACLAGRVVAASRQILAFSGDLKG	failed
MEGKGSFSENLVKRLQLVKANRSHLAPLIDLLRSKVSKSVKRNKHFFRDYADQIYIVSSGFKEFILPIVTEFGIKEEHVMANTFTFDNDGNIIGCDANNPLSQDKGKIKLMEKLGLTGDVHVIGDGYTDYEIRGAGLASKFYAFTENVSRAAVTAKADSIAPSFDEILFQEKL	failed
